Test results from PMC6328183 (2019).

Target: FuBc protein (recombinant protein of the fusion loop and Bc loop of domain II of dengue envelope protein with … (DENV-2 (of the template structure PDB …, UniProt P12823)))
Experiment: SPR

B1: 3IXY scFv antibody (VH and VL of the anti-fusion loop dengue E53 Fab, PDB 3IXY, joined by a (G4S)3 linker) (scFv, V domains shown)
VH: EVKLVESGGGLVLPGGSLRLSCATSGFTFTDYYMTWVRQPPGKALEWLGFIGNKANDYTTEYSASVKGRFTISRDDSQSILYLQMSTLRAEDRATYYCATVYGNYPYFDVWGAGTTVAVSS
VL: QIVLTQSPAIMSASPGEKVTMTCSASSSVSYMHWYQQKSGTSPKIWIYESSKLASGVPVRFSGSGSGTSYSLTISSMEAEDVATYYCQQWSSHPHPLTFGAGTKLELK
- koff: 0.0077 s⁻¹
